# T1: biotinylated CD150 protein (UniProt Q13291 21-237, labeled with biotin, sites not stated)
# T1 chain: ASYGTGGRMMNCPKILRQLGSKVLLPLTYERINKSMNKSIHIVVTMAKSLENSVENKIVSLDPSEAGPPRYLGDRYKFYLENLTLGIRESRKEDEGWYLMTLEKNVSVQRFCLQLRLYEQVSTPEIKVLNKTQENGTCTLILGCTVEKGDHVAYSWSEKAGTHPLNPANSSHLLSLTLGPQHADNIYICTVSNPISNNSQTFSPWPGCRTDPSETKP
# B1: nanobody Fc fusion protein (anti-CD150 nanobody fused with human IgG1 Fc) (Fc fusion)
# chain: QVQLVESGGGLVQAGGSLRLSCAASGRAFSDYAVGWFRQAPGREREFVATISWSGFSTYYADSVKGRFTISRDNAEKTVTLQMNSLKPEDTAVYYCAADRNGTSFPYIRRDEYDYWGQGTQVT
# How the values were obtained:
# [1] = biological target: CD150 protein (extracellular domain, hFc fragment cleaved off with TEV protease) (UniProt Q13291); test: non-competitive ELISA; CD150 coated at 10 ug/mL, nanobody Fc fusion diluted 1:4 in series, HRP anti-IgG1 Fc detection
# [2] = biological target: T1, biotinylated CD150 protein; test: BLI
binder,measurement,setting,value
B1,EC50,[1],0.0333 µg/mL
same,Kd,[2],20.1 nM

# From patent publication US20250382367A1 (published 2025)
